One molecule from patent US12662540B2, “Compositions and methods for inhibition of MICA/B shedding” (DANA-FARBER CANCER INSTITUTE, INC., priority 2017, dated 2026) can be followed below.

Assay [1] has as its system MICA α3 domain. Nature of the assay: ELISA for antibody binding to immobilized MICA α3 domain. As to conditions: fluorescence-based ELISA, immobilized antigen. More on the design: species or system human. Here is the method: (§1) ELISA experiments were performed in DELFIA® 96-well plates (Perkin Elmer) or in Nunc Maxisorp 96-wells plates (Thermo Scientific). Wells were coated with antigens by overnight incubation at 4° C. using 100 ng of protein in 100 μl of carbonate buffer, […]. Plates were subsequently washed with 1× Tris-buffered saline-Tween buffer and incubated for 2 hours with 2% bovine serum albumin (BSA) in phosphate buffered saline (PBS), pH 7.4, or DELFIA® Assay Buffer (Perkin Elmer) at room temperature. MICA antibodies were used at 1 μg/ml, unless indicated otherwise. Isotype controls were MPC-11 (mIgG2b) and MOPC-21 (mIgG1), but only MPC-11 is shown in the figures, given that no differences were observed between these controls. Human isotype control was a recombinant human IgG1 antibody (BE0096, BioXcell). Biotinylated goat anti-mouse IgG (Poly4053—Biolegend) was used as the secondary antibody which was followed by streptavidin-Europium (Perkin Elmer) and DELFIA® Enhancement Solution (Perkin Elmer). Europium fluorescence was quantified using an EnVision® microplate reader (Perkin Elmer). The HRP-conjugated secondary antibodies were Novex® Goat anti-human IgG (A24470, Life Technologies), Goat anti-mouse IgG1 (1070-05), IgG2a (1080-08), IgG2b (1090-05), and IgG3 (1100-05), and Goat anti-mouse IgG (31430, Thermo Scientific). […] Absorbance was read at 450 nm.
On the technique in general: In an ELISA, binding on a coated surface is turned into a signal by an enzyme label.

Assay [2] concerns MICA. Nature of the assay: ELISA for antibody binding to immobilized MICA extracellular domain (α1-α3 domains; alleles 002, 008, 009, 018). As to conditions: immobilized antigen. More on the design: species or system human. The protocol:
as §1

The subject of assay [3] is murine tumor cell lines (B16F10, CT26, Neuro-2a) expressing full-length MICA or MICB. Nature of the assay: Shed and surface MICA/MICB in murine tumor cell lines transduced with full-length MICA or MICB. As to conditions: B16F10 cells expressing MICA or MICB; comparison among mAbs. The assay is classed as cell-based, mouse. The source says: B16F10, CT26, Neuro-2a, EL4 and RMA-S cell lines were transduced with lentiviral vector pHAGE-CMV-fullEF1a. MICA (allele 009) cDNA or other inserts were placed between NotI and BamHI cloning sites, 3′ to the EF1α promoter and 5′ to the IRES. ZsGreen or luciferase cDNAs were cloned 3′ to the IRES as fluorescence or bioluminescence reporters, respectively. The vector with the ZsGreen reporter was used to compare expression of cDNAs encoding full length MICA, full-length MICB and secreted MICA (Neuro-2a, RMA-S and/or B16F10 cell lines). CT26, EL4 and B16F10 cell lines were transduced with the vector that supported expression of the luciferase reporter. […]
(§2) Tumor cells (5×10^4 or 1×10^5 per well, depending on the cell line) were cultured for 24 to 72 hours in 96-well plates (flat-bottom plates for adherent cell lines, U-bottom plates for suspension cell lines). […] MICA or control antibodies were added at different concentrations, and shed MICA/B was then detected in supernatants by ELISA using the Human MICA ELISA kit (Ab59569, Abcam) or Human MICB DuoSet ELISA kit (DY1599, R&D Systems), using the procedures recommended by the manufacturers. […]
MICA and MICB were detected on the cell surface by the PE-conjugated anti-MICA/B antibody (clone 6D4, 320906, Biolegend). […] All samples were acquired in a BD LSR Fortessa flow cytometer, and analyzed by FlowJo V10 software.

The subject of assay [4] is short-term human melanoma cell lines. Put plainly: MICA/MICB shedding by short-term human melanoma cell lines. The assay is classed as cell-based. As to conditions: 24-72 hours.
From the text: A375, HCT-116, SK-N-SH, K562, A2058, B16F10, CT26, and Neuro-2a cell lines were all obtained from American Type Culture Collection (ATCC). HEPG2 and MDA-MB-231 cell lines were kindly provided by Drs. Chandan Sharma and Martin Hemler, Dana-Farber Cancer Institute, Boston. The EL4 and RMA-S cell lines were generous gifts from Dr. Mark Smyth, QIMR Berghofer Medical Research Institute, Herston, Australia. The short-term human melanoma cell lines CY.21A-S1, CY36-S1, and CY048-S were obtained from patients following surgical resection of metastatic lesions as previously described (27). All cell lines were mycoplasma free, as tested by MycoProbe Mycoplasma Detection Kit (R&D Systems). Human and murine cell lines were cultivated in RPMI-1640 or DMEM media, respectively, supplemented with 10% fetal bovine serum (FBS), 1× Glutamax® (Gibco), and 1× Penicillin and Streptomycin (Gibco). […]
as §2

Assay [5] relates to CT26-MICA. Put plainly: CT26 metastasis model. The assay is classed as in vivo, Balb/c mice. As to conditions: antibody days 1, 2, 7, 14; count day 21. The protocol:
Balb/c wild type mice were injected intravenously with 1×10^6 CT26-MICA, and treated with 7C6-mIgG2b or MPC-11 (isotype) administered intraperitoneally on days 1, 2, 7, and 14. Euthanasia was performed on day 21, followed by lung perfusion with 30% Indian ink through the trachea and fixation in Fekete's fixative. That procedure stains the lungs in black, while the metastases remain white, enabling counting of metastases under a stereomicroscope (24).
Balb/c wild type mice were injected intravenously with 1×10^6 CT26-MICA, and treated with 7C6-mIgG2b or MPC-11 (isotype) administered intraperitoneally on days 1, 2, 7, and 14. Euthanasia was performed on day 21, followed by lung perfusion with 30% Indian ink through the trachea and fixation in Fekete's fixative. That procedure stains the lungs in black, while the metastases remain white, enabling counting of metastases under a stereomicroscope.

In assay [6] the test system is A375 human melanoma cell line. Nature of the assay: Dacarbazine combination with MICA/B antibody, A375 cells. The assay is classed as cell-based.

B1: 7C6: monoclonal antibody from mice immunized with recombinant MICA α3 domain; parental mIgG2b; VH SEQ ID NO: 7, VL SEQ ID NO: 8 (antibody)
VH: QIQLVQSGPELKKPGETVKVSCKASGYMFTNYAMNWVKQAPEKGLKWMGWINTHTGDPTYADDFKGRIAFSLETSASTAYLQINNLKNEDTATYFCVRTYGNYAMDYWGQGTSVTVSSAKTTAPSVYPLAPVCGDTTGSSVTLGCLVKGYFPEPVTLTWNSGSLSSGVHTFPAVLQSDLYTLSSSVTVTSS
VL: DIQMTQTTSSLSASLGDRVTISCSASQDISNYLNWYQQKPDGTVKLLIYDTSILHLGVPSRFSGSGSGTDYSLTISNLEPEDIATYYCQQYSKFPRTFGGGTTLEIK
modifications: mAb 7C6 heavy chain amino acid sequence; mAb 7C6 light chain amino acid sequence
On to B1, for which, in assay [1], the “binding to MICA α3 domain” value is on record as “bound to the MICA α3 domain”. The “binding to MICA full-length extracellular domain” value in assay [2] is “also the full-length extracellular domain”. Further, the “stabilization of MICA/B on the surface of tumor cells” value in assay [3] is given as “most effective in stabilizing MICAS on the surface of tumor cells”. The “MICA and MICB shedding by short-term human melanoma cell lines” value in assay [4] is “inhibited MICA and MICB shedding”. Besides, the “activity against CT26-MICA lung metastases” value in assay [5] is given as “demonstrated efficacy in a lung metastasis model”. In addition, in assay [6] (30 mM dacarbazine, 10 μg/ml 7C6, 48 hours), the “human NK cell killing of A375 cells, dacarbazine combination with MICA/B antibody” value was “is increased by dacarbazine combination with MICA/B antibody”. Moreover, the “MICA/B shedding (6D4-PE staining)” value in assay [6] (A375, 48 hours, 10 μg/ml antibody with dacarbazine) is “inhibited MICA/B shedding”.
